Measured values as given in IntAct's records for PubMed 10446210.

B1: "Na(+)/H(+) exchange regulatory cofactor NHE-RF1" (Oryctolagus cuniculus (Rabbit)), Q28619 (parent)
chain: MSADAAAGAPLPRLCCLEKGPNGYGFHLHGEKGKVGQYIRLVEPGSPAEKAGLLAGDRLVEVNGENVEKETHQQVVSRIRAALNAVRLLVVDPDTDEQFRKLGVQIRGELLRAQAGPEQAGPPAAPGEQGPAGENEPREVEKSHPERRELRPRLCAMKKGPNGYGFNLHSDKSRPGQFIRAVDPDSPAEASGLREQDRIVEVNGVCVEGKQHGDVVTAIKAGGDEAKLLVVDKETDEFFKKCKVVPSSEHLNGPLPEPFTNGEIQKNNPETLAPAASESPRPALARSASSDTSEELASQDSPKKEDSTAPSSTSSSSDPILDFSISLAVAKERAHQKRSSRRAPQMDWSEKKELFSNL

Variants of: B1
Details: with Grk6, O70293-1
Sequence of Grk6, O70293-1 (O70293 whole entry): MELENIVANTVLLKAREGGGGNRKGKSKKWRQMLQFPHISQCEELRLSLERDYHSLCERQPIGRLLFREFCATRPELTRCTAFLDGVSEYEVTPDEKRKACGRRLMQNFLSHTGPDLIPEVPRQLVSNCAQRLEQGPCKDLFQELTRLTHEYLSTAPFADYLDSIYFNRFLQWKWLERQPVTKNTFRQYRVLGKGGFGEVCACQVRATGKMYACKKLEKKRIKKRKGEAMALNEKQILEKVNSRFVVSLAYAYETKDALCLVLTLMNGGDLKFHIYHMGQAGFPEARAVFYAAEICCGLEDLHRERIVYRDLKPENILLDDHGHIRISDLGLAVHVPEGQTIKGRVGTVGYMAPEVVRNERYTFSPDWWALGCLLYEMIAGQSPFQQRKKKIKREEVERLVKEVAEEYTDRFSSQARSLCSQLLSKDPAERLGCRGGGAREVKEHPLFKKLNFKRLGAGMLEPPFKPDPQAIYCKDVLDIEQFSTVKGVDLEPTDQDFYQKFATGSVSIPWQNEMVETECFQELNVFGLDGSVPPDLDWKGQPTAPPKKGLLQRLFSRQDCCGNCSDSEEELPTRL
In the case of K158A, the “effect of a mutation on the interaction” value is reported as “decreasing interaction”.
With K159A the “effect of a mutation on the interaction” value was “decreasing interaction”.

Variants of: B1
Details: with Grk6, O70293-1
Remark: another data set of the same source
In the case of S289A, the “effect of a mutation on the interaction” value is reported as “disrupting interaction”.
